Assay results from patent US8530168B2, “Fusion protein comprising a Caspase domain and a nuclear hormone receptor binding domain and methods and uses thereof” (Helmholtz Zentrum Munich Deutsches Forschungszentrum fuer …, priority 2007, dated 2013).

Legend:
HeLa cells = experiment: Transient cotransfection with β-galactosidase reporter into HeLa cells; type: cell-based, human; details: 10^−8 M 4-OH-tamoxifen, Cre-ER(T2) as reference, range given jointly for HeLa and Pac2
Protocol: (§1) Results are shown as mean values of triplicate samples with standard deviation. (b) Transient cotransfection of a β-galactosidase reporter with a Cre-ER(T2), myrCasp8-ER(T2), or Casp9-ER(T2) expression plasmid into murine M5/N9 (black columns), human HeLa (grey columns) or zebrafish Pac2 (open columns) cells. 12 h following transfection, cells were cultured for 36 h with 4-OH-tamoxifen at 10^−8 M and the activity of β-galactosidase in cell lysates was determined. Values obtained from transfections of the Cre-ER(T2) vector were defined as reference. Results are shown as mean values of triplicate samples with standard deviation.
Transient transfections into M5/N9 and HeLa cells were performed with FuGene transfection reagent (Roche) following the manufacturer's instructions. Briefly, semiconfluent cultures in a 24-well plate were transfected in triplicate with 112 ng of the β-galactosidase expression vector CMVβ(Invitrogen) and the same amount of pCAG-Cre-ER(T2), pCAG-Casp8-ER(T2) or pCAG-Casp9-ER(T2) plasmid DNA. After 12 h 4-OH-tamoxifen was added at a concentration of 10^−8 M and the cultures were lysed at 48 h. Cell lysis and the measurement of β-galactosidase activity by chemiluminescence were performed with the β-galactosidase reporter gene assay (Roche) using a Centro LB960 plate luminometer (Berthold). […]

MEF5/N9 cells = experiment: Transient cotransfection of ER(T2) fusion expression vectors with β-galactosidase reporter; β-galactosidase activity in lysates; type: cell-based, mouse; details: 10^−8 M 4-OH-tamoxifen, 48 h; relative to Cre-ER(T2) without 4-OH-tamoxifen
Outline: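 MEF5/N9 mouse embryonic fibroblasts transiently cotransfected with pCMV-β-gal reporter (100 ng) plus ER(T2) fusion vector (100 ng; 50 ng for Casp9 constructs), then induced with 10^−8 M 4-OH-tamoxifen for 48 h. Lysate β-galactosidase read by chemiluminescence (RLU), mean of two wells, expressed relative to uninduced pCAG-Cre-ER(T2) control set at 1.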

Pac2 cells = experiment: Transient cotransfection with β-galactosidase reporter into Pac2 cells; type: cell-based, zebrafish; details: 10^−8 M 4-OH-tamoxifen, Cre-ER(T2) as reference, range given jointly for HeLa and Pac2
Protocol: as §1
PAC2 zebrafish fibroblasts were grown in Leibowitz's L15—with L-Glutamine medium supplemented with 1% Non-essential Amino Acids, 1% Penicillin/Streptomycin and 10% fetal calf serum (all Gibco) at 28° C. 3×10^6 Cells were transiently transfected with the plasmids CMVβ together with CAG-CreER(T2), CAG-myrCasp8ER(T2) or CAG-Casp9ER(T2) (500 ng each) using nanofectin transfection reagent (PAA). 24 hrs after transfection the medium was replaced and conditioned with 10^−8 M 4-OH-tamoxifen. Before lysis, the cells were incubated for another 24 hrs at 28°. […]

B1: Casp9full-ER(T2): full length murine Caspase-9 fused to ER(T2) ligand binding domain, SEQ ID NO: 29 (protein)
chain: MDEADRQLLRRCRVRLVSELQVAELWDALLSRELFTRDMIEDIQQAGSGSRRDQARQLVTDLETRGRQALPLFISCLEDTGQGTLASLLQSGRQAAKQDPEAVKPLDHLVPVVLGPMGLTAKEQRVVKLDPSQPAVGNLTPVVLGPEELWPARLKPEVLRPETPRPVDIGSGGAHDVCVPGKIRGHADMAYTLDSDPCGHCLIINNVNFCPSSGLGTRTGSNLDRDKLEHRFRWLRFMVEVKNDLTAKKMVTALMEMAHRNHRALDCFVVVILSHGCQASHLQFPGAVYGTDGCSVSIEKIVNIFNGSGCPSLGGKPKLFFIQACGGEQKDHGFEVACTSSQGRTLDSDSEPDAVPYQEGPRPLDQLDAVSSLPTPSDILVSYSTFPGFVSWRDKKSGSWYIETLDGILEQWARSEDLQSLLLRVANAVSAKGTYKQIPGCFNFLRKKLFFKTSVEPSAGDMRAANLWPSPLMIKRSKKNSLALSLTADQMVSALLDAEPPILYSEYDPTRPFSEASMMGLLTNLADRELVHMINWAKRVPGFVDLTLHDQVHLLECAWLEILMIGLVWRSMEHPVKLLFAPNLLLDRNQGKCVEGMVEIFDMLLATSSRFRMMNLQGEEFVCLKSIILLNSGVYTFLSSTLKSLEEKDHIHRVLDKITDTLIHLMAKAGLTLQQQHQRLAQLLLILSHIRHMSNKGMEHLYSMKCKNVVPLYDLLLEAADAHRLHAPTSRGGASVEETDQSHLATAGSTSSHSLQKYYITGEAEGFPATA
modifications: fusion protein Casp9full-ER(T2)
reduction of β-Galactosidase activity in presence of 4-OHT (HeLa cells): 91-93%
relative β-galactosidase activity in presence of 4-OH-tamoxifen compared to the negative control (MEF5/N9 cells): 7%
reduction of β-Galactosidase activity in presence of 4-OHT (Pac2 cells): 91-93%
